What was measured:
[1] = biological target: CRIPT^L4 (CRIPT mutants with substitutions to any of the last four cysteines), co-IP from mitotic HeLa cells; test: co-IP
[2] = biological target: CRIPT^S4 (CRIPT mutants with substitutions to any of the first four cysteines), co-IP from mitotic HeLa cells; test: co-IP

| fold of tubulin brought down relative to wild-type CRIPT [1] | fold of tubulin brought down relative to wild-type CRIPT [2] | Substance |
| --- | --- | --- |
| > 2 fold | > 2 fold | α-tubulin, endogenous, mitotic HeLa cells (from UniProt P68363 1-451) (natural protein) |
| > 2 fold | > 2 fold | β-tubulin, endogenous, mitotic HeLa cells (from UniProt P07437 1-444) (natural protein) |

Reference: doi:10.1101/869123
